# Assay results published in IntAct's records for PubMed 9312003.
# B1: ADP-ribosylation factor 6 (Homo sapiens), P62330 (parent)
# chain: MGKVLSKIFGNKEMRILMLGLDAAGKTTILYKLKLGQSVTTIPTVGFNVETVTYKNVKFNVWDVGGQDKIRPLWRHYYTGTQGLIFVVDCADRDRIDEARQELHRIINDREMRDAIILIFANKQDLPDAMKPHEIQEKLGLTRIRDRNWYVQPSCATSGDGLYEGLTWLTSNYKS
# partner: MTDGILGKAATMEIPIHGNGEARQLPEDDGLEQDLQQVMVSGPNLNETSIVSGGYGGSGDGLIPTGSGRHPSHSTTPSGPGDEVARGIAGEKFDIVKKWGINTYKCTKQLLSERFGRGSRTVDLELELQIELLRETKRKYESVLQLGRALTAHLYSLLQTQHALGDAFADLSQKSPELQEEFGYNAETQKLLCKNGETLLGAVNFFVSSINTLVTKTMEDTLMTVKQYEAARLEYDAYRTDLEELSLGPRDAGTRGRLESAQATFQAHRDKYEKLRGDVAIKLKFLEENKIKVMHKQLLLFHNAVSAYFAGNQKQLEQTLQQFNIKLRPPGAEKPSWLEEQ
# Variants of: B1
# Conditions: with arfp2_human ARFIP2, P53365
row,effect of a mutation on the interaction,Variant
1,decreasing interaction,T28N
